Patent US20090155236

T1: annexin V protein
T1 chain: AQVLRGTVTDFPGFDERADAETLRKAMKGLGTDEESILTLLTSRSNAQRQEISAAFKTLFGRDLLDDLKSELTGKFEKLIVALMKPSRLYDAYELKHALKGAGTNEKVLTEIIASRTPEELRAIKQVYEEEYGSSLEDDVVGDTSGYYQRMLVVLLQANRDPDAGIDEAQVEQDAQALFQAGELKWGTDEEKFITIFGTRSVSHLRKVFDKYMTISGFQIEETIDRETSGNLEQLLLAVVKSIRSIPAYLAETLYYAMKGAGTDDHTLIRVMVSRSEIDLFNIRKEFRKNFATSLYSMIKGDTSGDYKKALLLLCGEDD

B1: recombinant full-length delta PKC (protein)
chain: MAPFLRISFNSYELGSLQVEDEASQPFCAVKMKEALSTERGKTLVQKKPTMYPEWKTTFDAHIYEGRVIQIVLMRAAEDPVSEVTVGVSVLAERCKKNNGKAEFWLDLQPQAKVLMCVQYFLEDGDCKQSMRSEEEAKFPTMNRRGAIKQAKIHYIKNHEFIATFFGQPTFCSVCKEFVWQKQGYKCRQCNAAIHKKCIDKIIGRCTGTATNSRDTIFQKERFNIDMPHRFKVYNYMSPTFCDHCGSLLWGLVKQGLKCEDCGMNVHHKCREKVANLCGINQKLLAEALNQVTQRSSRKLDTTESVGIYQGFEKKPEVSGSDILDNNGTYGKIWEGSTRCTLENFTFQKVLGKGSFGKVLLAELKGKDKYFAIKCLKKDVVLIDDDVECTMVEKRVLALAWESPFLTHLICTFQTKDHLFFVMEFLNGGDLMFHIQDKGRFELYRATFYAAEIICGLQFLHSKGIIYRDLKLDNVMLDRDGHIKIADFGMCKENIFGEGRASTFCGTPDYIAPEILQGLKYSFSVDWWSFGVLLYEMLIGQSPFHGDDEDELFESIRVDTPHYPRWITKESKDIMEKLFERDPDKRLGVTGNIRIHPFFKTINWSLLEKRKVEPPFKPKVKSPSDYSNFDPEFLNEKPQLSFSDKNLIDSMDQEAFHGFSFVNPKFEQFLDI
B2: purified full-length epsilon PKC (protein)
chain: MVVFNGLLKIKICEAVSLKPTAWSLRHAVGPRPQTFLLDPYIALNVDDSRIGQTATKQKTNSPAWHDEFVTDVCNGRKIELAVFHDAPIGYDDFVANCTIQFEELLQNGSRHFEDWIDLEPEGRVYVIIDLSGSSGEAPKDNEERVFRERMRPRKRQGAVRRRVHQVNGHKFMATYLRQPTYCSHCRDFIWGVIGKQGYQCQVCTCVVHKRCHELIITKCAGLKKQETPDQVGSQRFSVNMPHKFGIHNYKVPTFCDHCGSLLWGLLRQGLQCKVCKMNVHRRCETNVAPNCGVDRIAKVLADLGVTPDKITNSGQRRKKLIAGAESPQPASGSSPSEEDRSKSAPTSPCDQEIKELENNIRKALSFDNRGEEHRAASSPDGQLMSPGENGEVRQGQAKRLGLDEFNFIKVLGKGSFGKVMLAELKGKDEVYAVKVLKKDVILQDDDVDCTMTEKRILALARKHPYLTQLYCCFQTKDRLFFVMEYVNGGDLMFQIQRSRKFDEPRSRFYAAEVTSALMFLHQHGVIYRDLKLDNILLDAEGHCKLADFGMCKEGILNGVTTTTFCGTPDYIAPEILQELEYGPSVDWWALGVLMYEMMAGQPPFEADNEDDLFESILHDDVLYPVWLSKEAVSILKAFMTKNPHKRLGCVASQNGEDAIKQHPFFKEIDWVLLEQKKIKPPFKPRIKTKRDVNNFDQDFTREEPVLTLVDEAIVKQINQEEFKGFSYFGEDLMP

Target: T1, annexin V protein

Protein | histone phosphorylation in an in vitro kinase reaction (SDS-PAGE, autoradiography)
B1 | The addition of annexin V to delta PKC in the presence of PS/DAG (Lane 3) increases the catalytic activity of delta PKC
B2 | annexin V does not increase the activity of epsilon PKC
